The assay addresses T1, SLC15A2 (Solute carrier family 15 (H+/peptide transporter), member 2) (human, UniProt Q16348 1-729).
T1 construct: Expressed from its cDNA on stably transfected 3T12 and Calu6 cells (FACS, saporin killing), and endogenous in human prostate sections (IHC); also called SLC15A2 protein; SLCA15A2
T1 sequence: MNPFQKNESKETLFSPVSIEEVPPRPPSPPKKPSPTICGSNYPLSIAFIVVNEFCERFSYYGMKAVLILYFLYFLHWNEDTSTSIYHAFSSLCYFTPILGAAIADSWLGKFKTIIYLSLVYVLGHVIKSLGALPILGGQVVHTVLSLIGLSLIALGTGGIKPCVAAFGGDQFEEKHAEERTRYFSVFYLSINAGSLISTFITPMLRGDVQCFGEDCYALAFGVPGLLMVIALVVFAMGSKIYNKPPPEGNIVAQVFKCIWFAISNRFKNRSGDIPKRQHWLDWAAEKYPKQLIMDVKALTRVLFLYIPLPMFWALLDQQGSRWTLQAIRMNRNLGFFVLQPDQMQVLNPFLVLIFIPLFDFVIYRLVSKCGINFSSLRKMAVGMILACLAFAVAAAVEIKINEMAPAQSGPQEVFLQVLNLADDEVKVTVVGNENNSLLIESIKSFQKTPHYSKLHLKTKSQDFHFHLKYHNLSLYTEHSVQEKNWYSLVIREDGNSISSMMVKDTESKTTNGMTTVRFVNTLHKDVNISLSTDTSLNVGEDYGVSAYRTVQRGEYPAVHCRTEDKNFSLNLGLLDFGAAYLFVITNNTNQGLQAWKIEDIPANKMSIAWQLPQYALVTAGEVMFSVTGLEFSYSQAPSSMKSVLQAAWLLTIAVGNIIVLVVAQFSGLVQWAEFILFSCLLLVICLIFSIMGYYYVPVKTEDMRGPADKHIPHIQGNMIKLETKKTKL
Kind of assay: FACS, hybridoma supernatant on SLC15A2 expressing cells.

Two molecules from patent US20040223970A1 (published 2004) can be followed below.

B1: PDO5 #811 monoclonal antibody (antibody, V domains shown)
VH: QVQLQQPGAELVRPGASVKLSCKASGYTFTSYWLNWVRQRPGQGLEWIGMIDPSDSETHYNQMFKDKATLTVDKSSSTAYMQLSSLTSEDSAVYYCTSQGVPVPFDYWGQGTTLTVSS
VL: DVVMTQTPLSLPVSLGDQASISCRSSQSLVHSNGNTYLHWYLQKPGQSPKLLIYRVSNRFSGVPDRFSGSGSGTDFTLKISRVEAEDLGVYFCSQSTHVPWTFGGGTKLEIKR
notes: Mouse monoclonal antibody from a hybridoma, used as hybridoma supernatant; also called clone 811
As to B1, the binding result is given as “binds”.

B2: PDO5 #810 monoclonal antibody (antibody, V domains shown)
VH: EVQLQQSGPELVKPGASMKISCKASGYSFTGYTMNWVKQSHGKNLEWIGLINPYNGGINYNQKFKGKATLTVDKSSSTAYMELLSLTSEDSAVYYCTRRAYYGNYGTMDYWGQGTSVTVSS
VL: ENVLTQSPASMSASPGEKVTMTCSASSSVSYMHWYQQKSTTSPKLWIYDTSNLASGVPGRFSGSGSGNSYSLTISNMEAEDVATYYCFQGSGYPLTFGAGTKLELKR
notes: also called clone 810; Clone 810 supernatant
Regarding B2, the binding result is listed as “binds”.
